These results are taken from patent US20080311130A1 (IMMUNE DISEASE INSTITUTE, published 2008).

For assay [1], the target named is T1, ICAM-1-Fcγ (ICAM-1 residues of 1-480 fused to the Fc of human IgG, R&D Systems) (human, UniProt P05362 28-480).
T1 construct: range 1-480; Bought (R&D Systems); also called ICAM-1-Fcγ chimera; not shown: Fc of human IgG
Put plainly: SPR (Biacore). The procedure: Sensograms show the binding of the I domain mutants (F292A, F265S, F292G, and F265S/F292G) to ICAM-1-Fcγ-coated sensor chip. In all sensograms, the signals from the control surface, as described in Materials and Methods, were subtracted. I domain mutants were injected in a series of concentrations starting from 100 μM for F292A and 1 μM for F292G, F265S, and F265S/F292G, and the subsequent concentrations were by two-fold serial dilutions.
(§1) Mutant I domains (F265S, F292A, F292G, F265S/F292G, and HA) with residues of Asn-129 to Tyr-307 were expressed in Escherichia coli BL21 (DE3) (Novagen), refolded, and purified as described previously⁶. ICAM-1-Fcγ-coupled or mock-coupled CM5 sensor chip as control was prepared using the amine coupling kit (BIAcore, Piscataway, N.J.), as described previously³³. Surface plasmon resonance was measured using Biacore 3000. I domains were injected over the chip in 20 mM Tris HCl, pH 8.0, 150 mM NaCl, 10 mM MgCl₂, at a flow rate of 10 μl/min at room temperature.
(§2) The values shown in the table are mean ± SD from three independent measurements. The parameters of kₒₙ, koff, and Kd were calculated by fitting the 1:1 Langmuir binding model to the Biacore sensogram. The values were from the previous studies ⁶.

Assay [2] deals with T1, ICAM-1-Fcγ (ICAM-1 residues of 1-480 …). Put plainly: cell-based or functional assay.
Assay [3] shares this target. Nature of the assay: SPR (Biacore); wild-type value from a previous study. For orientation: SPR reads the build-up and loss of mass on a sensor chip optically.
For assay [4] the target is unchanged. Nature of the assay: SPR (Biacore 3000), I domain injected over ICAM-1-Fcγ-coupled CM5 chip, 10 mM MgCl2. The procedure:
as §1
Several of the most activating mutants were expressed in Escherichia coli and refolded in order to measure the kinetics of binding to ICAM-1 by surface plasmon resonance (FIG. 2). Data are shown in Table 2, and for comparison are shown kinetics measured for the wild-type and disulfide-bonded IA and HA mutants in a previous study⁶, and for the same disulfide-bonded HA mutant in the current study.
as §2

The target in assay [5] is ICAM-1-Fcγ (ICAM-1 residues of 1-480 fused to the Fc of human IgG, R&D Systems) (human) (UniProt P05362). Put plainly: flow cytometry on yeast-displayed I domain, ICAM-1-Fcγ 10 µg/ml.
ICAM-1-Fcγ (ICAM-1 residues of 1-480 fused to the Fc of human IgG, R&D Systems) (human), sequence (P05362 28-480 limits assumed): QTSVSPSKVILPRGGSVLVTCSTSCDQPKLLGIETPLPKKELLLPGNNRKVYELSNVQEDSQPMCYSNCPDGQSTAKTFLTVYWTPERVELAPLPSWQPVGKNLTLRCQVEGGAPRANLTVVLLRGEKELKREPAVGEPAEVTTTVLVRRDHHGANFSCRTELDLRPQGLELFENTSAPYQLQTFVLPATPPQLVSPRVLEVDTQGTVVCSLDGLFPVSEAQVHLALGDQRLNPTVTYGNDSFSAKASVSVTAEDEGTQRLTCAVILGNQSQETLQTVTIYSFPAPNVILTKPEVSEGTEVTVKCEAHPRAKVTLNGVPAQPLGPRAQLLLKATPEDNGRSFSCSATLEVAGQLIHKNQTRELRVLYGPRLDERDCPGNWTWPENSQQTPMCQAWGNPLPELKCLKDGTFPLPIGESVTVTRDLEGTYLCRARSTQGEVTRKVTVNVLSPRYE

T1 sequence (P05362 28-480 limits assumed, form in doubt): as the sequence (P05362 28-480 limits assumed) above

B1: soluble αL I domain double mutant F265S/F292G, Asn-129 to Tyr-307 (receptor)
chain: NVDLVFLFDGSMSLQPDEFQKILDFMKDVMKKLSNTSYQFAAVQFSTSYKTEFDFSDYVKWKDPDALLKHVKHMLLLTNTFGAINYVATEVFREELGARPDATKVLIIITDGEATDSGNIDAAKDIIRYIIGIGKHSQTKESQETLHKFASKPASEFVKILDTGEKLKDLFTELQKKIY
Consider B1, for which, in assay [1], the “fold decrease in dissociation rate compared to the F265S and F292G single mutants” value was determined as 10 fold; the “fold higher binding affinity than the HA mutant” value is 20 fold; the “fold higher kon than the single mutants” value came to 2 fold; the “fold slower dissociation rate than the HA I domain” value is about 100 fold. Besides, in assay [2], the “IC50 in blocking the adhesion of PMA activated lymphocytes to ICAM-1 coated surfaces” value is 350 nM; the “potency relative to the HA I domain in lymphocyte adhesion to ICAM-1, transmigration and homotypic aggregation” value amounted to 10 fold. Besides, the “fold increase in affinity compared to the wild-type I domain” value in assay [3] was 200000 fold. In addition, in assay [4], the Kd came out at 6 nM, the koff is 0.00015 s⁻¹ and the kon came to 25000 M⁻¹ s⁻¹.

B2: αL I domain clone f1 (L289A), yeast-displayed (receptor, not shown: large carriers; small tags and cut ends)
chain: NVDLVFLFDGSMSLQPDEFQKILDFMKDVMKKLSNTSYQFAAVQFSTSYKTEFDFSDYVKWKDPDALLKHVKHMLLLTNTFGAINYVATEVFREELGARPDATKVLIIITDGEATDSGNIDAAKDIIRYIIGIGKHFQTKESQETLHKFASKPASEFVKIADTFEKLKDLFTELQKKIYVIEGTSKQDLT
In the case of B2, the ICAM-1 (% ASFI of HA) in assay [5] was 1 % ASFI of HA.

One may read the Kd as the equilibrium constant for the complex coming apart. A high value points to lower affinity. In general, koff refers to a measure of how fast the partners let go of each other. High values mean a short-lived complex, low ones a long-lived complex. For orientation: kon means the second-order rate constant of association.
